# Reference: patent publication JP2024517985A (dated 2024)
# T1: CD300c抗原(11832-H08H、Sino Biological) (UniProt Q08708 21-183)
# T1 construct: Bought recombinant protein; also called CD300c; CD300c antigen
# T1 sequence (looked up): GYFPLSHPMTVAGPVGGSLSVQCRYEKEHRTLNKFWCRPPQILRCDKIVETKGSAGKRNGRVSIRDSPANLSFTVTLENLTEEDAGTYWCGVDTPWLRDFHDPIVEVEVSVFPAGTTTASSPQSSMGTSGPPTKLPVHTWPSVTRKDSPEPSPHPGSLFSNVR
# T2: 293T細胞及びTHP-1細胞の表面で過剰発現されたCD300c (UniProt Q08708 21-224, limits assumed)
# T2 construct: whole, on cells; Expression construct not described; also called CD300c overexpressed on 293T cells; CD300c overexpressed on THP-1 cells
# T2 sequence (looked up): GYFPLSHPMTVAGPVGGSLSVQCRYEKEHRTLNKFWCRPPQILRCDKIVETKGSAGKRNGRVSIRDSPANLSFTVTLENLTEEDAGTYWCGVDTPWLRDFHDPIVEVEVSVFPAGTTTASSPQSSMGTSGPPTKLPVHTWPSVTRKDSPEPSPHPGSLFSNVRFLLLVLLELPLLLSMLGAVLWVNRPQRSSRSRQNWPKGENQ
# How the values were obtained:
# [1] = target: T1, CD300c抗原(11832-H08H、Sino Biological); test: SPR, CD300c immobilised on CM5 chip, CL7 as analyte 0-6.25 ug/ml
# [2] = target: T2, 293T細胞及びTHP-1細胞の表面で過剰発現されたCD300c; test: flow cytometry (MFI) on 293T cells overexpressing CD300c, FITC anti-human IgG (H+L)
# [3] = target: T1, CD300c抗原(11832-H08H、Sino Biological); test: SPR, CD300c immobilised on CM5 chip, CL7 as analyte 0-6.25 ug/ml (rounded form of the same KD)
# [4] = target: T2, 293T細胞及びTHP-1細胞の表面で過剰発現されたCD300c; test: flow cytometry (MFI) on THP-1 cells overexpressing CD300c, FITC anti-human IgG (H+L)
binder,measurement,setting,value
"抗-CD300cモノクローナル抗体 CL7 (antibody, V domains shown) VH: EVQLLESGGGLVQPGGSLRLSCAASGFTFSRYAMSWVRQAPGKGLEWVSAISGSGGSTYYADSVKGRFTISRDNSKNTLYLQMNSLRAEDTAVYYCARSSQGIFDIWGQGTLVTVSS VL: QSVLTQPPSASGTPGQRVTISCSGNNIGTRRVHWYQQLPDTAPKLLIYSKNNRPSGVPDRFSGSKSGTSASLAISGLRSEDEADYYCAAWDDSLSGPVFGGGTKLTVL",Kd,[1],0.52 nM
same,EC50,[2],2.7 nM
same,Kd,[3],0.52 nM
same,EC50,[4],2.6 nM
